Assay: yeast display, Sf9 membrane polyspecificity reagent, FACS + sequencing; frameworks hold sequencing errors
Summary of the method: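 Galactose-induced (36–48 hours) yeast carrying a synthetic nanobody display library were exposed to 10% biotinylated, detergent-solubilized Sf9 membrane reagent at 4 °C for 1 hour. FACS followed streptavidin microbead enrichment, using low and high (top ~1%) gates for expression (anti-HA) and reagent binding (streptavidin). Colony PCR, MiSeq 2 × 250 sequencing and CDR-length filtering followed. Labels for polyreactivity reflect the gate of origin.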

Sequence	polyreactivity (PSR sort gate)
QVQLVESGGGLVQAGGSLRLSCAASGYIFDNNAMGWYRQAPGKERELVAAINWSGGSTYYADSVKGRFTISRDNAKNTVYLQMNSLKPEDTAVYYCNKLIYGIYYPERYAYDYWGQGTQVTVSS	low polyreactivity
QVQLVESGGGLVQAGGSLRLSCAASGYIFDVYAMGWYRQAPGKERELVATISSGTGITKYADSVKGRFTISRDNAKNTVYLQMNSLKPEDTAVYYCAADYASLSWLGFYYWGQGTQVTVSS	low polyreactivity
QVQLVESGGGLVQAGGSLRLSCAASGYIFEYYAMGWYRQAPGKERELVAAISVGGGSTYYADSVKGRFTISRDNAKNTVYLQMNSLKPEDTAVYYCAAVQLYQKHQITYVAHEYWGQGTQVTVSS	low polyreactivity
QVQLVESGGGLVQAGGSLRLSCAASGYIFFANAMGWYRPAPGKERELVAAISSDGRTYYADSVKGRFTISRDNAKNTVYLQMNRLKPEDTAVYYCAAYFSGLTYGYYVAGYDYWGQGTQVTVSS	low polyreactivity
QVQLVESGGGLVQAGGSLRLSCAASGYIFFGNAMGWYRQAPGKERELVAAIRRRGTSTYYADSVKGRFTISRDNAKNTVYLQMNSLKPEDTAVYYCAADVVRSNFYGTFLYDYDYCGQGTQVTVSS	low polyreactivity
QVQLVESGGGLVQAGGSLRLSCAASGYIFFRNAMGWYRQAPGKEREFVAAIRFSGGNTYYADSVKGRFTISRDNAKNTVYLQMNSLKPEDTAFYYCAADKVRQGHYWTPMEYWGQGTQVTVSS	low polyreactivity
QVQLVESGGGLVQAGGSLRLSCAASGYIFGAYAMGWYRQAPGKERELVAGITASGDSTYYADSVKGRFTISRDNAKNTVYLQMNSLKPEDTAVYYCNAQPDIGLYDRQWKEPYEYWGQGTQVTVSS	low polyreactivity
QVQLVESGGGLVQAGGSLRLSCAASGYIFGGYAMGWYRQAPGKERELVAAISRSGGSTYYADSVKGRFTISRDNAKNTVYLQMNSLKPEDTAVYYCAVRGYTLRYGYWGQGTQVTVSS	high polyreactivity
QVQLVESGGGLVQAGGSLRLSCAASGYIFGNYAMGCYRQAPGKERELVAAISKSGVTTYYADSVKGRFTISRDNAKNTVYLQMNSLKPEDTAVYYCNARSWRPINARYNEYDYWGQGTQVTVSS	low polyreactivity
QVQLVESGGGLVQAGGSLRLSCAASGYIFGRNAMGWYRQAPGKEREFFAAISSSGSSTYYADSVKGRFTISRDKAKNTVYLQMNSLKPEDTAVYYCNADRLRSTHDYWGQGTQVTVSS	high polyreactivity
QVQLVESGGGLVQAGGSLRLSCAASGYIFGRYAMGWYRQAPGKERELVAAISSTGDSTYYADSVKGRFTISRDNAKNTVYLQMNSLKPEDTAVYYCNAVVRRYSYGRYYYWGQGTQVTVSS	high polyreactivity
QVQLVESGGGLVQAGGSLRLSCAASGYIFGYNAMGWYRQAPGKERELVAAINYSGTRTYYADSVKGRFTISRDNAKNTVYLQKNSLKPEDTAVYYCNAVGQLQYVSSDDYWGQGTQVTVSS	high polyreactivity
QVQLVESGGGLVQAGGSLRLSCAASGYIFGYNTMGWYRQAPGKERELVATINWRGSRTYYADSVKARFTISLDNAKNTVYLQMNSLKPEDTAVYYCNADHQFRSSVSGDHDYWGQGTQVTVSS	high polyreactivity
QVQLVESGGGLVQAGGSLRLSCAASGYIFIGYAMGWYRQAPGTERELVATITSGGSTNYADSVKGRFTISRDNAKNTVYLQMNSLNPEETAVYNCAAGRGRYCYSWRYLYAIFDYWGQGTQVTVSS	low polyreactivity
QVQLVESGGGLVQAGGSLRLSCAASGYIFIVNAMGSYRQAPGKERELVAAITDRGGSTYYADSVKGRFTISRDNAKNTVYLQMNSLKPEVTAVYYCAAELVHRLWYRDVHFDYWGQGTQVTVSS	low polyreactivity
QVQLVESGGGLVQAGGSLRLSCAASGYIFKHYAMGWYIQAPGKERELVAAITSGGRTNYADSVKGRFTISRDNAKNTVFLQMNSLIPEDTAVYYCAARRYRYFDGTVPLDYWGQGTLVTVSS	high polyreactivity
QVQLVESGGGLVQAGGSLRLSCAASGYIFKNYAMGWYRQAPGKERELVAAITRRGASTYYADSVKGRFTISRDNAKNTVYLQMNSLKPEDTAVYYCAAYPWPPGEYDYWGQGTQVTVSS	low polyreactivity
QVQLVESGGGLVQAGGSLRLSCAASGYIFKVNSMGWYRQAPGKERELVADISRNSGSTRYADSVKGRFTISRDNAKNTVYLQMNSLKPDDTAVYYFAADGRYWVKPGSPWDRSRYDYWGQGTQVTVSS	low polyreactivity
QVQLVESGGGLVQAGGSLRLSCAASGYIFKYNAMGWYRQAPGKERELVAAISSGGSTYYADSVKGRFTISRDNAKNTVYLQMNSLKPEDTAVYYCAARGVRSARIYYYWGQGTQVTVSS	high polyreactivity
QVQLVESGGGLVQAGGSLRLSCAASGYIFKYYAMGWYRQAPGKERELVTAIRSNDDSTYYADSVKGRFTISRDTAKNTVYLQMNSLKPEDTAVYYCAAATYGTRLRRYYYWGQGTQVTVSS	high polyreactivity
QVQLVESGGGLVQAGGSLRLSCAASGYIFLAYAKGWYRQAPGKERELVADNTYADSVKGRFTISRDNAKNTVYLKMNSMKPEDTAVYYCNADEVYDEYSYDYWGHGTQVTVSS	low polyreactivity
QVQLVESGGGLVQAGGSLRLSCAASGYIFLGYDMVWYRQAPGKERELVAVINWSGGRTRYADSVKGRFTISRDNAKNTVYLQMNSLKPEDTAVYYCAAERSITYDYWGQGSQVTVSS	high polyreactivity

Sequence	polyreactivity (PSR sort gate)
QVQLVESGGGLVQAGGSLRLSCAASGYIFLRNSLGWYRQAPGKERELVAAIRRTGGSTYYADSVKGRFTISRDNAKNTVYLQMNSLKPEDTAVYYCAKRSYTGYEYWGQGTQVTVSS	low polyreactivity
QVQLVESGGGLVQAGGSLRLSCAASGYIFNPNAMGWYRQAPGKERELVAAITWSGGNTYYADSVKGRFTISRDNAKNTVYLQMNSLKPEDTAVFYCNAEYRWPYWGQWYFKGYDYWGQGTQVTVSS	low polyreactivity
QVQLVESGGGLVQAGGSLRLSCAASGYIFNYAIGWYRQAPRKESELVAAITWDGSSTNYADSVKGRFTISRDNAKNTVYLQMKSLKPEDTAVYYCNARGRWTFNGFWFTYNYWGQGTQVTVSS	high polyreactivity
QVQLVESGGGLVQAGGSLRLSCAASGYIFPDYPMGWYRPATGKERELVAAFTSSGGRTYYADSVKGRFTISRDNAKNTVYLQMNSLKPEDTAVYYCAAVSVLKKTFDYWGQGTQVTVSS	high polyreactivity
QVQLVESGGGLVQAGGSLRLSCAASGYIFPPYAMGWYRQAPGKERELVATMTGIGGSTDYADSVKGRFTISRDNAKNTVYLQMNSLKPEDTAVYYCAARRDGYGTHYDYWGQGTQVTVSS	low polyreactivity
QVQLVESGGGLVQAGGSLRLSCAASGYIFPYYPMGWYRQAPGKQRELVAAISRSGGGTYYADSVKGRFTISRDIANNTVYLQMNSLKPEDTALYYCNRRSGHVHEYDYWGQGTQVTVSS	low polyreactivity
QVQLVESGGGLVQAGGSLRLSCAASGYIFQDYAMGWYRPAPGKERELVAAITSGGSTYYADSVKGRFTISRDNAKNTVYLQMNSLKPEDTAVYYCAAVGYYSVPGYSSRRYYYWGQGTQVTVSS	high polyreactivity
QVQLVESGGGLVQAGGSLRLSCAASGYIFQRYTMGWYRQAPGKERELVAAITRSGGRTYYADSVKGRFTISRDNAKNTVYLQMNSLKPEDTAVYYCAVDYRTRGDYWGQGTQVTVSS	high polyreactivity
QVQLVESGGGLVQAGGSLRLSCAASGYIFQTYAMGWYRQAPGKEREFVAAITSGAGRTSYADSVKGRFTISRDNAKNTVYLQMNSLKPEDTAVYYCAARWRYQLSGSRLSYGKYDYWGQGTQVTVSS	high polyreactivity
QVQLVESGGGLVQAGGSLRLSCAASGYIFQYYAKGWYRQAPGKERELVAAITGGGSTKYADSVKGRFTISRDNAKHTVYLQMNSLKPEDTAVYYCAKRYPSWFNYWGQGTQVTVSS	high polyreactivity
QVQLVESGGGLVQAGGSLRLSCAASGYIFRFNAMGWYRQAPGKERELVAAISRSGGRTYYADSVKGRFTISRDNAKNTVYLQMNSLKPEDTAVYYCAAVRYKGGGNQPYGYWGQGTQVTVSS	high polyreactivity
QVQLVESGGGLVQAGGSLRLSCAASGYIFRFNAMGWYRQAPGKERELVAVITSGARTYYADSVKGRFTISRDNAKNTFYLLMNSLKPEDTAVYYCNAGARRYLYDYWGQGTQVTVSS	low polyreactivity
QVQLVESGGGLVQAGGSLRLSCAASGYIFRGYVMGWYRQAPGKERELVAAITSRGDSTYYADSVKGRFTISRDNAKNTVYLQMNSLKPEDTAVYYCNAVHYYVEYDYWGQGTQVTVSS	high polyreactivity
QVQLVESGGGLVQAGGSLRLSCAASGYIFRRYAMGWYRQAPGKERELVAAISFSGGSTYYADSVKGRFTISRDNAKNTVYLQMNSLKPEDTAVYYCAALSLLRYDYWGQGTQVTVSS	high polyreactivity
QVQLVESGGGLVQAGGSLRLSCAASGYIFRSYVMGWYRQAPGKERELVAAISVSGGRTYYADSVKGRFTMSRDNAKNTVYLQMNSLIPEDTAVYYCAAYLGRRGQEMDYWGQGTQVTVSS	high polyreactivity
QVQLVESGGGLVQAGGSLRLSCAASGYIFRYYAMGWYREAPGKERELVARINSGGSTYADSVKGRFTISRDNAKNTVYLQMNSLKPEDTAVYYCAADLAKYRSKLGYWGQVTQVTVSS	high polyreactivity
QVQLVESGGGLVQAGGSLRLSCAASGYIFRYYAMGWYRQAPGKERELVAAISRSGGNTYYADSVKGRFTISRDNAKNTVYLQMNSLKPEDTAVYYCAVVLSTYSYADYDYWGQGTQVTVSS	high polyreactivity
QVQLVESGGGLVQAGGSLRLSCAASGYIFSDNTMGWYRQAPGKERELVAVITSGTSTSYADSVKGRFTISRDNAKNTVYLQMNSLKPEDTAVYYAARTGQYKTYGEYDYWGQGTQVTVSS	low polyreactivity
QVQLVESGGGLVQAGGSLRLSCAASGYIFSYNAMGWYRQAPGKERELVAAMTASGGGTYYADSVKGRFTISRDNAKNTVYLQMNSLKPEDTAVYYCAADFNDHYYWYGQDYDYWGQGTQVTVSS	low polyreactivity
QVQLVESGGGLVQAGGSLRLSCAASGYIFSYYAMGWYRQAPGKERELVAAINRSGGRTYYADSVKGRFTISRDNAKNTVYLQMNSLKPEDTAVYYCAADQLSDEYDYWGQGTQVTVSS	high polyreactivity
QVQLVESGGGLVQAGGSLRLSCAASGYIFSYYTMGLYRQAPGKERELVASNRWGGGRTYYADSVKGRFTISRDNAKNTVYLQMNSLKPEDTAVYYCNVKSSRLLDVGRMEYWGQGTQVTVSS	high polyreactivity

Reference: the nanobody polyreactivity screen of Harvey et al. (2022)
